No end group written: not given here.
What was measured:
[1] = molecular target: HIV-1 BaL virions (virion-associated envelope gp120, stock grown in primary CD4+ T cells) (HIV-1 BaL); test: cell-based or functional assay
[2] = molecular target: recombinant soluble gp120 (isolate YU2) (HIV-1 isolate YU2), P35961; test: SPR; biotinylated pV2α (235 RU) on neutravidin-coated CM3 chip, gp120 YU2 in solution at 2, 4, 8 and 16 nM; koff-KD distribution model
[3] = molecular target: recombinant soluble CD4 (number of domains not stated), P01730; test: SPR; biotinylated pV2α (235 RU) on neutravidin-coated CM3 chip, recombinant soluble CD4 in solution; koff-KD distribution model

Binder | IC50 of inhibition of acute infection of primary human CD4+ T cells by HIV-1 BaL [1] | Kd [2] | koff [2] | Kd [3] | koff [3]
KVQKEYALFYELDIVPID (modifications not checked) [peptide pV2α-Tys (tyrosine-sulfated variant of peptide pV2α)] | 15 µM |  |  |  | 
KVQKEYALFYELDIVPID (not fully specified) [biotinylated peptide pV2α (captured on neutravidin chip or biotin-captured in ELISA)] |  | 0.9 nM | 6.4e-05 s⁻¹ | 4 mM | 0.013 s⁻¹

From patent publication US20150313990A1
